Experimental findings from the nanobody polyreactivity screen of Harvey et al. (2022) are described below.

This data set can be described thus: yeast display, Sf9 membrane polyspecificity reagent, FACS + sequencing; frameworks hold sequencing errors. In outline: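 Galactose induction of a Saccharomyces cerevisiae BJ5465 synthetic nanobody display library ran 36–48 hours. The cells were then stained for 1 hour at 4 °C with 10% biotinylated, detergent-solubilized Sf9 membrane reagent, pulled down on streptavidin microbeads and FACS-sorted into low and high (top ~1%) gates on expression and reagent-binding fluorescence. Labels for polyreactivity follow the gate of origin.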
Consider “QVQLVESGGGLVQAGGSLRLSCAASGRTFGPYAMGWYRQAPGKERELVAAITDTGSGTYYADSVKGRFTISRDNAKNTVYIQMNSLKPEDTAVFYCNANYLSWYRYKYNYWGQGTQVTVSS”, for which the “polyreactivity (PSR sort gate)” value is “low polyreactivity”.

Take “QVQLVESGGGLVQAGGSLRLSCAASGRIFDWNAVGWYRQAPGKERELVAAITWTGGTTYYADSVKGRFTISRDNAKNTVYLQMNSLKPEDTAVYYCAKRGGNQFAYRARSFDYWGQGTQVTLSS”: the “polyreactivity (PSR sort gate)” value is reported as “low polyreactivity”.

Consider “QVQLVESGGGLVQAGGSLRLSCAASGRTFLVFAMGWYRQAPGKERELVAAITRDDNTNYADSVKGRFTISRDNAKNTVYLQMNSLKPEDTAVDYCAADALVYRLGNYYFIFDYWGQGTEVTVSS”, for which the “polyreactivity (PSR sort gate)” value is “low polyreactivity”.

Take “QVQLQESGGGLVQAGGSLRLSCAESGTIFGWDRMGRYRQAPGKERELVATIDNRGSTNYADSVKGRFTISRDNAKNTVYPQMNSLKPDDTAVYYCAVVGPTPQYHLYWGQGTQVTVSS”: the “polyreactivity (PSR sort gate)” value is “high polyreactivity”.

“QVQLVESGGGLVQAGGSLRLSCAASGFTFVYNAMGWYRQAPGKERELVAAISSSGGRTYYADSVKGRFTISRDNAKNTVYLQMNSLKPEDTAVYYCAVEYPVYYYVEYDYWGQGTQVTVSS”: the “polyreactivity (PSR sort gate)” value is recorded as “high polyreactivity”.

As for “QVHLGESGGGLVQAGGSLRLSGAASGFTFAVNAMGWYRQAPWNERELVAGITSGGRTNYADSVKGRFTISRDNAKNTVYLQMTSLKPEVTAVYYCAAARRYSKGYVPPYYKYRYDYWGQGTHVTVSS”, the “polyreactivity (PSR sort gate)” value is reported as “high polyreactivity”.

“QVQLVESGGGLVQAGGSLRLRCAASGRIYCDNATGRYRQAPGKESELVAPISDSVVITYYADSVKGRFTISRDNAKNTLYVQMNSLKPEDTAVYYCAADKRGTVYLSSFWMDYWGQGTQVTVSS”: the “polyreactivity (PSR sort gate)” value was “low polyreactivity”.

For the sequence “QVQLVESGGGLVQAGGSLRLSCAASGRIISHYAMGWYRQAPGKDRELVAAISRSGVSTYYADSVKGRFTISRDNAKNTVYLQMNSLKPEDTAVYYCNRRYDRGPYDYWGQGTQVTVSS”, the “polyreactivity (PSR sort gate)” value was “low polyreactivity”.

With “QVQLVESGGGLVQAGGSLRLSCAASGNNFYINAMGSYRQAPGKERELVAAIRGGGSTYYADSVKGRFTISRDNAKNTVYLQMNSLKPEDTAVYYCAARGRRLNPQYRAFGMDYWGQGTQVTVSS”, the “polyreactivity (PSR sort gate)” value was “high polyreactivity”.

For “QVQLVESGGGLVQAGGSLRISCAASGFTFYRYAMGWYRPAPGKERELVASIRRSDGSTSYADSVKGRFTISRDNAKNTFYLQMNSLKPEDTAVYYCAARYAGSSRYDYWGQGTQVTVSS”, the “polyreactivity (PSR sort gate)” value is “high polyreactivity”.

Take “QVQLVESGGGLVQAGGSLRLSCAASGIIFWSYTMGWYSQAPGKERELVAVITSDGSTNYADSVKGRITISRDNAKNSVYLQMKSLKPEDTAVYDCAADPWLGTGRYDYWGQGTQVTVSS”: the “polyreactivity (PSR sort gate)” value is listed as “low polyreactivity”.

For “QVQLVESGGGLVQAGGSLRLSCAASGRIFQKYAMVWYRQAPGKERELVAAISSGDSTYADSVKGRFSISRDNAKNTVYLQMNSLKPEDTAVYYCAGDLYDPWWYSYMGEYEYWGQGTQVTVSS”, the “polyreactivity (PSR sort gate)” value is given as “low polyreactivity”.

On to “QVQLVESGGGLVQAGGSLRISCAPSGSTFPRYAMGWYRQAPGKEREFVAVIWSGGSTYYADSVKGRFTISRDNAKNTVYLQMNSLKPEDTAVYYCAAEYHTLSKYSGYATHDYWGQGTQVTVSS”, for which the “polyreactivity (PSR sort gate)” value is “low polyreactivity”.

As for “QVQLVESGGGLVQAGGSLRLSCAASGRTFDDNAMGWYRQAPGKEREFVADIDWSGGDTYYADSVKGRLTISRDNAKNTVYLQMNSLKPEDTAVYYCAARPIISVGRSRYDYWGQGTQVTVSS”, the “polyreactivity (PSR sort gate)” value is reported as “high polyreactivity”.

Turning to “QVQLVESGGGLVQAGGSLRLSCAASGSTFIVYAMGWYRQAPGKERELVAAISLDGGSTYYADSVKGRFTISRDNAKNTVYLQMNSLKPEDTAVYYCNADYYANSITYDSWGQGTQVTVSS”, the “polyreactivity (PSR sort gate)” value is on record as “low polyreactivity”.

On to “QVQLVESGGGLVQAGGSLRLSCAASGSIFRFNAMGWYRQAPGKERELVAAISDSGGRTYYADSVKGRFTISRDNAKNTVYLQMNSLKPEETAVYYCNAYVHSQGGDYWGQGTQVTVSS”, for which the “polyreactivity (PSR sort gate)” value is reported as “high polyreactivity”.

Regarding “QVQLVESGGGLVQAGGRLRLSCAASGNIFYPNAMGWYRQAPGKERELVAAISSSGGSTYYADSVKGRFTISRDNAKNTVYLQMNSLKPEDTAVYYCAKDRSYAYYWWPYPTGYDYWGQGTQVTVSS”, the “polyreactivity (PSR sort gate)” value is on record as “low polyreactivity”.

On to “QVQRVESGGGLVQAGGSLRLSCAASGFTLDYYTMGWYRQAPGKERELVAAISWIGTSTYYADSVKGRFTISRDNAKNTVYIQMNSLKPEDTAVYYCAAVGASVDDYYWGQGSQVTVSS”, for which the “polyreactivity (PSR sort gate)” value is “high polyreactivity”.

On to “QVQLVESGGGLVQAGGSLRLSCAASGLTFRVNDMGWYRQAPGKERELVATISSGGSTYYADSVKGRFTISRDNAKNTVYLQMNSLKPEDTAVYYCATNSEGQESNSYYVWMGYWGQGTQVTVSS”, for which the “polyreactivity (PSR sort gate)” value is “low polyreactivity”.

With “QVQLVESGGGLVQAGGSLRLSCAASGIIFIHYTMGWYRQAPGKERELVAAISWSGGSTYYADSVKGRFTISRDNAKNTVYLQMNSLKPEDTAVYYCAADYIFYHRMYYWGQGTQVTVSS”, the “polyreactivity (PSR sort gate)” value is on record as “high polyreactivity”.

As to “QVQLVESGGGLVQAGGSLRLSCAASGSIFGYYAMGWYRQAPGKERELVAAISGIGGSTYYADSVKGRFTISRDNAKNTVYLQMNSLKPEDTAVYYCAKARPHVGGGGDYWGQGTQVTVSS”, the “polyreactivity (PSR sort gate)” value is “low polyreactivity”.

In the case of “QVQLVESGGGLVQAGGSLRLSCAASGNTFGPYDMGWYRQSPGKERELVAGITSGGSTYYADSVKGRFTISRDNAKNTVYLQMNSLKPEDTAVYYCAADDYLWVYWYDYWGQGTQVTVSS”, the “polyreactivity (PSR sort gate)” value is listed as “high polyreactivity”.

“QVQLVESGGGLVQAGGSLRLSCAASGSIFKLNAMGWYRQAPGKERELVAVINKSGGRTYYADSVKGRFTISRDNAKNTVYLQMNSLKPEDTAVYFCNAVSKLAVNLDYWGQGTQVTVSS”: the “polyreactivity (PSR sort gate)” value is on record as “high polyreactivity”.

Consider “QVQLVESGGGLVQAGGSLRLSCAASGRIFWVNAMGWYRQAPGKEREFVAAISWSGGSTYADSVKGRFTISRDNAKNTVYLQMNSLKPEDTAVYYCAADRYNGRYGYWGQGTQVTVSS”, for which the “polyreactivity (PSR sort gate)” value was “high polyreactivity”.

As to “QVQLVESGGGIVQAGGSLRLSCAASGSTLNSYVMGWYRQAPGKERELVATIRSGSSTNYADSVKGRFTISRDNAKYPDYLLMNSLKPEDTAVYSCAADAYSLCYDSWGQGTQVTVSS”, the “polyreactivity (PSR sort gate)” value is “low polyreactivity”.

Turning to “QVQLVESGGGLVQAGGSLRLSCAASGTTFNAYAMGWYRQAPGKDRELVAAISTSGGRTYYADSVKGRYTISRDNAKNTVYLQMNSLKPEDTAVNYCAAVLGRSPGLNYWGQGTQVTVSS”, the “polyreactivity (PSR sort gate)” value is given as “high polyreactivity”.

Regarding “QVQLQESGGGLVQACGSQRLSCAASGSICEGQDMGWYRRAPGKEREFVAGIAPGATTYYADSVKGRFTISRDNAKNTVYLQMNSLKPEDTAVYYCAARSVTETDHDSWGQGTQVTVSS”, the “polyreactivity (PSR sort gate)” value is “low polyreactivity”.

For the sequence “QVQLVESGGGLVQAGGSLRLSCAASGSTFRGYAMGWYRQAPGKERELVAAITGSGDRTRYADSVKGRFTISRDNAKNTVYIQMNSLKPEDTAVYYCAKFCPHWAYYSWGQGTQVTVSS”, the “polyreactivity (PSR sort gate)” value is given as “high polyreactivity”.

As to “QVQLVESGGGLVQAGGSLRLSCAASARIFKLNAMGGYRQAPVKERELVAAINSGTRTYYADSVKGRFSISRDNAKNTVYLQMKSLKPEDTAVYYGAAEGVWWYSRYDYWGQGTQVTVSS”, the “polyreactivity (PSR sort gate)” value is “high polyreactivity”.

For the sequence “QVQLVESGGGLVQAGGSLRLSCAASGRIFAYNTMGWYRQAPGKERELVAVITSGGSTNYADSVKGRFTISRDNAKNTVYLQMNSLKPEDTAVDYCNAPYVARKRFSYNYWGQGTQVTVSS”, the “polyreactivity (PSR sort gate)” value is “high polyreactivity”.

Regarding “QVQLVESGGGLVQAGGSLRLSCAASGRIFVKNAMGWYIQAPGKERELVAAISASGGSTYYADSVKGRFTISRDYSKNTVYLQMNSLKPEYTAVYYCARVLRRRYLSEFDYWGQGTQVTVSS”, the “polyreactivity (PSR sort gate)” value was “high polyreactivity”.

Regarding “QVQLVESGGGLVQAGGSLRLSCAASGRTFSRYAMGWYRQAPGKERELVASITSRGGSTYYADSVKGRFTISRDNAKNTVYLQMNSLKPEDTAVYYCNVKPTYSTRYWEDYWGQGTQVTVSS”, the “polyreactivity (PSR sort gate)” value is “high polyreactivity”.

Take “QVQLVESGGGLVQAGGSLRLSCAASGTFYGNTMGWYRRPPGKERELVAVISIDGSTNYADSVKGRFTISRDNAKNTVYLQMNSLKPEDTAVYYCAADYWRQFRDYDYWGQGTQVTVSS”: the “polyreactivity (PSR sort gate)” value is recorded as “low polyreactivity”.

Regarding “QVQVVESGGGIVKAGGSLRLSCAPSGSTFYYYAMGWYRQAPRKERELVATISWSGDSTYADSVKGRFTISRDNSKNTVYLQLTSLKPEDTAVYYCATCGDWWGFRYDYWGQCTQVTVSS”, the “polyreactivity (PSR sort gate)” value is “low polyreactivity”.

As for “QVQLVESGGGLVQAVGSHRLSSAASGFIFDYNAMGWYRQEPVKVRELVAAISVSDDSTYYADSVKGRFTISRDNAKNTVYLQLNSLKPEVPAGYYCAAEWWDVIAPYDYWGLGTQVTVSS”, the “polyreactivity (PSR sort gate)” value is reported as “low polyreactivity”.

For “QVQLVESGGGLVQAGGSLRLSCAASGSIFPRNAMGWSRQAPGKEMELVATITSGTSTNYADSVKGRFTISRDNAKNTVYLQMNSLKPEDTAVYYCAADHYYTGTTYNYWGQGTQVTVSS”, the “polyreactivity (PSR sort gate)” value is reported as “low polyreactivity”.

Take “QDQLVESGGCLVQAGGSLRLSCADSGSNFWYYAMVWYRQAPGKERELVAAITSAGSTYYADSVKGRFTISRDNAKITVYLQINSLKPEDTAVYYCAKVKAWSEYYYWGQGTQVTVSS”: the “polyreactivity (PSR sort gate)” value is listed as “low polyreactivity”.

“QVQLVESGGGLVQAGGSLRLSCAASGSISYYAMGWYRQAPGKEMELVAAISQSGGSTYYADSVKGRFTISRDNAKNTVYLQMNSLKPEDTAVYYCAAKSPYSSYYPYGYWGQGTQVTVSS”: the “polyreactivity (PSR sort gate)” value is “high polyreactivity”.

On to “QVQLVESGGGLVQAGGSLRLSCAASGIIFGPYVMGWYRQAPGKERELVATISRTGDTYYADSVKGRFTISRDNAKNTVYLQMNSLKPEDTAVYYCAVEWSAHKYYYWGQGTQVTVSS”, for which the “polyreactivity (PSR sort gate)” value was “low polyreactivity”.

“QVQLVESGGGLVQAGGSLRLSCAASGRTFQQNAMGWYRQAPGKERELVAAINSRGGRTYYADSVKGRFTISRDNAKNTVYLQMNSLKPEDTAVYYCNAVVYTRPYTRPRYRYDYWGQGTQVTVSS”: the “polyreactivity (PSR sort gate)” value is “high polyreactivity”.

As for “QVQLVESGGGLVQAGGSLRLSCAASGRIFGWYAMGWYRQAPGKERELVAAINRGGSTNYADSVKGRFTISRDNAKNTVYLQMNSLSPEDTGVYYCAVRGVHYTAVTNIIYGYGYWGQGTQVTVSS”, the “polyreactivity (PSR sort gate)” value is listed as “high polyreactivity”.
